Experimental data from patent publication US20020177689A1.

Biological target: Rhodamine green-Gly-Gly-dPhe-Leu-Arg-Arg-Val-Cys(QSY 7)-betaAla-NH2

recombinant human neutral endopeptidase (NEP) (from UniProt P08473) (enzyme)
Km (steady state kinetics, FRET cleavage assay): 8 µM
